Measurements reported in PMC8893695, “The microprotein Nrs1 rewires the G1/S transcriptional machinery during nitrogen limitation in budding yeast” (PLoS Biology, 2022).

B1: ^GSTWhi5 (natural protein, S. cerevisiae, UniProt Q12416 1-295, looked up)
chain: MSLRTPKRSRTSDEQEQEQEQEQVQNPDTHVNNEHQQRPGPTTLLSTPVRLKNGFGTPSPPSPPGITKSITKSRRRPSTTSLQGIFMSPVNKRRVGITAHGRVYDHNDDGHESESEDDENEEENENQKKYDGHVSMPLLPPTTPKSRRSEVFLSPSPRLRSPPTAARRSTGERPIREISHTLRTRLNYALVKLQNGWTDKTLPELETELAPAVQTPPRRYHNRFPDSADAGTSAHTAFLQALGGHPPREEATAVETLMLLSSPTKKQQHRPVPATSAGEPTDETEPESDTEVETS
notes: Whi5, S. cerevisiae; also called recombinant GST-tagged Whi5; source: recombinant
B2: recombinant ^HAWhi5 (natural protein, S. cerevisiae, UniProt Q12416 1-295, looked up)
chain: B1 chain
notes: Whi5, S. cerevisiae; source: recombinant

How the values were obtained:
^FLAGSwi4-Swi6 complex [1] = molecular target: T1, ^FLAGSwi4-Swi6 complex (S. cerevisiae, UniProt P25302 1-1093; P09959 1-803); test: co-IP; recombinant ^FLAGSwi4-Swi6-^GSTWhi5 complexes (0.1 ug ^GSTWhi5) incubated with 0.1, 0.2 and 0.5 ug His6-tagged Nrs1 (4, 8 and 20 Nrs1:Whi5 molar ratio), captured on anti-FLAG beads; blots with anti-GST and anti-HIS6; conditions: both partners purified
T1 construct: Swi4, S. cerevisiae; Swi6, S. cerevisiae; also called SBF; recombinant SBF; source: baculovirus-infected insect cells, purified (anti-FLAG M2 resin, eluted with FLAG peptide)

^FLAGSwi4-Swi6 complex [2] = molecular target: T1, ^FLAGSwi4-Swi6 complex; test: pull-down; recombinant ^HAWhi5 or ^GSTNrs1 titrated into preformed ^FLAGSwi4-Swi6-^GSTNrs1 or ^FLAGSwi4-Swi6-^HAWhi5 complexes immobilised on anti-FLAG resin; immunoblot and Coomassie; conditions: both partners purified

T1 sequence (P25302 whole entry, chain 1 of 2): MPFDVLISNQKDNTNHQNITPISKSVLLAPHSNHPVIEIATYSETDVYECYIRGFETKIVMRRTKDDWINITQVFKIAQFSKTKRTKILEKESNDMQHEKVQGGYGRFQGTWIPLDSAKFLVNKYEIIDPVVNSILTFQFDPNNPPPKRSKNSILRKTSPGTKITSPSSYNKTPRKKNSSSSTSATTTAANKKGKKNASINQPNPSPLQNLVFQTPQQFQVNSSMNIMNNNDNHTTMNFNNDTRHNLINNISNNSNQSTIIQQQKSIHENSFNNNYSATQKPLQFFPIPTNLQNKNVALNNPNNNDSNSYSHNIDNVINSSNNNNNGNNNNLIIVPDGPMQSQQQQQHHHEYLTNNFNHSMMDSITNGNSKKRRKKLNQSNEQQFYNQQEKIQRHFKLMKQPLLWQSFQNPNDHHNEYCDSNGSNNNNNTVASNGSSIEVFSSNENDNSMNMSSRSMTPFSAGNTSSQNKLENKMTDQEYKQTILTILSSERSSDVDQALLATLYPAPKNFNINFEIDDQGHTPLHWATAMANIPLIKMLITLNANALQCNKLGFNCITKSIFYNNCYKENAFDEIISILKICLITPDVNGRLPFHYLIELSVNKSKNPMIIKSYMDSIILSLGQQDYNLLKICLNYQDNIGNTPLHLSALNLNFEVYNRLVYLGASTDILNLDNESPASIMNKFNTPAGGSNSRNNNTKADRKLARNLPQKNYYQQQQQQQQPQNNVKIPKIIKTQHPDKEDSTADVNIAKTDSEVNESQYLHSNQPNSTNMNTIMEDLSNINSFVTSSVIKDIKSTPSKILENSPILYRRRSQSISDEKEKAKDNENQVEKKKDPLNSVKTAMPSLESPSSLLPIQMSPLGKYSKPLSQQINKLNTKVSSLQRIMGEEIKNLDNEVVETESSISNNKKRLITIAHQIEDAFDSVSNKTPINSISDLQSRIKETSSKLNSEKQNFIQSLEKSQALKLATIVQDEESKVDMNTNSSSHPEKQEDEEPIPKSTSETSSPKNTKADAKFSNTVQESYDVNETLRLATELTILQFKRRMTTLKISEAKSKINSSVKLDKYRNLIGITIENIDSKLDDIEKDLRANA
T1 sequence (P09959 whole entry, chain 2 of 2): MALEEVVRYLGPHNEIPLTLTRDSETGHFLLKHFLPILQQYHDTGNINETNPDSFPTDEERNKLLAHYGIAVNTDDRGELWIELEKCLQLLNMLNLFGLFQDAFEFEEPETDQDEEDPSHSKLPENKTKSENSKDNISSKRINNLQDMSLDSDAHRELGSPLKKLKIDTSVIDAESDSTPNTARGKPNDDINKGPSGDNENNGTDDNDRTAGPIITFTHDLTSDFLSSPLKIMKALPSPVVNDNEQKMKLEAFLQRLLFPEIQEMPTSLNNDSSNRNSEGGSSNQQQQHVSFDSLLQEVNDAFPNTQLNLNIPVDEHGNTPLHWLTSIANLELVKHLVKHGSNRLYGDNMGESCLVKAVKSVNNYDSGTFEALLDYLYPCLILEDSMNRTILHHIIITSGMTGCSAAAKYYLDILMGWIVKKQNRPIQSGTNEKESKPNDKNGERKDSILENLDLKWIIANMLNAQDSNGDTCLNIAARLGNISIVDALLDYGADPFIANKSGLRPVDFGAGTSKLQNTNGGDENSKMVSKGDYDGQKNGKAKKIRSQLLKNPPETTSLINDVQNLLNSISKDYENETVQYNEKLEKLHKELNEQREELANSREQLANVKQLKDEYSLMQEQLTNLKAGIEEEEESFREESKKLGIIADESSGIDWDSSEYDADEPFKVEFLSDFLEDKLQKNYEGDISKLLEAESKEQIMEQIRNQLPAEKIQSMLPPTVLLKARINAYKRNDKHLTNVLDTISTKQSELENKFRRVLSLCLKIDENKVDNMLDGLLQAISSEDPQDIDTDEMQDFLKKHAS

Row | Binder | binding result (^FLAGSwi4-Swi6 complex [1]) | binding result (^FLAGSwi4-Swi6 complex [2])
1 | B1 | binds | –
2 | B2 | – | binds
